Experimental data published in the supplement of paper PMC12042874.
± gives the uncertainty stated by the source.

Test: amyloid nucleation score (Sup35N fusion, yeast selection) (log enrichment); library NNK3; higher = more nucleation; inactive = no reads after selection
How it was run: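 Libraries of peptides of 20 random codons fused to Sup35N were expressed in psi-negative yeast and induced 24 hours with 100 μM copper sulfate. Selection was 7 days at 30°C on medium lacking adenine and uracil, and plasmid inserts were Illumina-sequenced before and after selection. Nucleation score is the DiMSum log enrichment of output over input reads, centred on the mode score of non-aggregating sequences, and sequences with under 100 input reads were left out.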

| Substance | amyloid nucleation score |
| --- | --- |
| VVGNSCVYPVGPRFAE | -0.454 ± 0.9 |
| VVISYQTSMTNHGCLSFYQW | 2.13 ± 0.056 |
| VVMCGCSSSRMGLGPVYRTF | inactive |
| VVMTDHINIKGIVEPTVTTF | inactive |
| VVQSYFIRREEFLLSCVQAG | inactive |
| VVRIGSRACGLRRKVCGGFG | inactive |
| VVSDTKYVVVEWYTCGQSSD | inactive |
| VVSLESSAVVNGWLWVLAGA | inactive |
| VVTEVSSLSSTGGSFVWLCR | inactive |
| VWFLLSILPHLTKSVSWGNT | inactive |
| VWHMGWKLPDS | -0.39 ± 0.56 |
| VWPFPRFRILVKYSFFLGIW | -0.232 ± 0.48 |
| VWPQNLNPICKSNLTRCVGC | inactive |
| VWSHSI | inactive |
| VWSQIERLKHHPEFHMWC | inactive |
| VWTRTWLLMTCHCNRFKDCS | 1.67 ± 0.12 |
| VWVKSGKWYRQLIRKYVGSS | inactive |
| VWWSYLQKSKILI | 0.624 ± 0.2 |
| VWYAYRLYQTWKITNVLIPW | inactive |
| VYCHC | inactive |
| VYDMDNVRYNHRGNTERFSG | 0.109 ± 0.28 |
| VYIRQLRMPAFCLTSGRALD | inactive |
| VYIRTGN | inactive |
| VYKDHAIVLCWVVK | -0.437 ± 0.56 |

| Substance | amyloid nucleation score |
| --- | --- |
| VYKWECKDRKYGWRYCAETW | inactive |
| VYLHIVHCMGYVNDQGRNRS | inactive |
| VYMYVALPRSEDHNVF | inactive |
| VYNALNNSAVLQL | inactive |
| VYNTGFLGPVSFSAGKFLML | 0.943 ± 0.13 |
| VYVGVLVFITWYLSSLYNWA | inactive |
| VYVVRANRFMRSPQLRVLFS | inactive |
| VYYACGMDVKNFWELRLWGD | 1.99 ± 0.063 |
| WAEREDAAVSLGLWYGDTCF | inactive |
| WAFGYFGCYFQFLVLQDSVG | 1.87 ± 0.1 |
| WAVIFT | inactive |
| WCGRETSRQWA | 0.033 ± 0.39 |
| WCQFSDLSVAFK | inactive |
| WCVASILRQFPLCYFITQNP | inactive |
| WCVMPFNSCTTLMYKFSEN | 1.66 ± 0.071 |
| WDMENFLD | inactive |
| WDTILDLGGNDVEGSFPVTE | inactive |
| WDVTNLAGFLNDPVSLKLS | inactive |
| WDVYLPLVMSLK | 1.29 ± 0.12 |
| WEFSVMSRCRKGHYTALFVV | inactive |
| WESLIGLWASAGMIWVHWGS | inactive |
| WEYNASLLVLTHLGWAFHLC | inactive |
| WFCNYRIMYKVSSIAPMLNP | inactive |
| WFNQHTECHGRSVHLAAHNV | -0.14 ± 1 |

| Substance | amyloid nucleation score |
| --- | --- |
| WFNTTNSGVEP | inactive |
| WFSNWYYVARDDYLISGREE | inactive |
| WFWLRRSFGFYHVKSSNSFT | inactive |
| WFYYVM | inactive |
| WGKTRFWRVSSWLLNDVWRV | inactive |
| WGLGETCLKLSWPCRN | inactive |
| WGLLRYYE | 0.091 ± 0.28 |
| WGLLV | inactive |
| WGTVMTLSCVALEVYFSLRV | inactive |
| WGWRA | -0.215 ± 0.57 |
| WHGYYMFLW | inactive |
| WHTDWRW | inactive |
| WHWRGTICVLCAGYRWIAHS | inactive |
| WIFCLVAIFRTEVDMTNYFT | 0.355 ± 0.69 |
| WIGDIIILWMRHSDLCILNC | inactive |
| WIYRLWQGDIVPRVMTAHTA | -0.735 ± 1.8 |
| WKFSISWVYTKME | -0.423 ± 0.75 |
| WKGPNRQSMLHGLPLYIYQI | -0.305 ± 0.66 |
| WKNLSYRGFHYWTALWHMVR | -0.12 ± 1 |
| WKRNKRGKV | 1.4 ± 0.11 |
| WKTTMALRSVLPGGYLHFCV | inactive |
| WKVMLRLALRMQCTHLAVCW | inactive |
| WLCLEYMVDEADNFSDGAWM | inactive |
| WLELVSCS | inactive |

| Substance | amyloid nucleation score |
| --- | --- |
| WLKNF | inactive |
| WLLKIMQYLDLAGNG | inactive |
| WLLTNNLDCQCCMCLDWMWC | 2.81 ± 0.057 |
| WLRSVLLRVTLLNSWHSWVS | inactive |
| WLVFKSVFVDRM | inactive |
| WLWTLYDG | inactive |
| WLYRNA | inactive |
| WMCIEGIANLESAFNRRFST | inactive |
| WMELTVIQCWMAA | inactive |
| WMLLLTV | inactive |
| WMVGVKRSW | inactive |
| WNAYVHTNNV | inactive |
| WNIFSYNNSLVWNPEGNESG | 0.836 ± 0.27 |
| WNYRFYPVKRNGSFLSRIVR | -0.47 ± 0.8 |
| WPESIFKLRYRSGCCTEVND | inactive |
| WQLAGYWLEWSIRPEGALDD | inactive |
| WQRWMA | inactive |
| WQYLNFS | 0.75 ± 0.29 |
| WRACHSRSSVVNWISLPDYS | inactive |
| WRFRPVVYQRRPY | inactive |
| WRLVLLHW | inactive |
| WRQVL | inactive |
| WRRMTEPMSAKGLTNYLEST | inactive |
| WRVADTTEARMTGWGVWQWY | inactive |

| Substance | amyloid nucleation score |
| --- | --- |
| WRVLKADDYFFFWWASCFAY | inactive |
| WSAECLFLVWRIHSML | inactive |
| WSCNN | inactive |
| WSDQTDRAGHFAVFNLSMGY | inactive |
| WSEHGQWMYNRLCGSGFISH | inactive |
| WSFCVSTREGSSNNFSRCGK | inactive |
| WSKDG | inactive |
| WSMSSVTYNSVCSCGSWCE | 1.87 ± 0.091 |
| WSQEATTM | inactive |
| WSRMTKSHKCRWDQLVTVHG | inactive |
| WTLFWNPLI | inactive |
| WTMVSGDALTCYTMTTMVRR | inactive |
| WTRCRLTDFYHSGMSYHHSG | inactive |
| WTRGNRHVVLQLLGQVSF | inactive |
| WTTNLVNAYLDRHVHNLMPL | inactive |
| WVGLCFLRFQVHSTSDESVS | inactive |
| WVNKEDESVVWYIWFGIECC | inactive |
| WVVEQVDLLSGMVIGLKNSR | inactive |
| WVVWEM | inactive |
| WWSCGILSKPFFWYISRTF | inactive |
| WWSKVMYRSTPTLNAFKDRQ | inactive |
| WYFWVFCSFKLENCAPVNQW | inactive |
| WYHVSHVYYGVGIGLRD | inactive |
| WYIVTNR | inactive |

| Substance | amyloid nucleation score |
| --- | --- |
| WYYQVKMISVCSLIEGMWTS | inactive |
| YAARNWIVQVD | inactive |
| YADRRIFSVS | inactive |
| YAIAAYFDKRRIVGWVINCS | inactive |
| YAKCSDVY | inactive |
| YALYCVFTGNSWQSVLRHRY | 1.32 ± 0.095 |
| YASFTK | inactive |
| YAWLCAASRYKTMVESLAEF | inactive |
| YAYVQRVYLACSINLMCLWY | inactive |
| YCCTLVTRCSVMNTL | 2.46 ± 0.065 |
| YCFICVDSIAL | 2.27 ± 0.072 |
| YCGEYYITGNMRLPLSTPSG | inactive |
| YCGTY | inactive |
| YCGWLCSSPPVQNV | inactive |
| YCIRVVVWYNRHYGYSLS | inactive |
| YCLKLLGGFC | 0.657 ± 0.27 |
| YCMGYSMHIV | inactive |
| YCMVKL | inactive |
| YCRCLCMLYG | inactive |
| YCVSMANKLTCLCKGNSYPN | 2.4 ± 0.061 |
| YCVYQWLSYSVCLFNLMECT | inactive |
| YCYAMS | inactive |
| YCYLGG | -0.36 ± 0.8 |
| YDCCMLHWIVFGGIVDGMCL | inactive |

| Substance | amyloid nucleation score |
| --- | --- |
| YDCFFTEIAVVVNIE | inactive |
| YDGIKSGFECLESGRKCKTA | inactive |
| YDKCLQCARRHNSSILSPTG | inactive |
| YDRPSVVRTWRTREKAVSGP | inactive |
| YDSRFTKLTCQSPINWHKEV | inactive |
| YDTNLRLFRSRRLSPGWCFR | inactive |
| YDVTSDR | inactive |
| YEFATNAQESS | inactive |
| YELMIFVTELALLDEILPEQ | inactive |
| YEPSNCKLVSMYVFCRLKLA | -0.574 ± 1 |
| YEQHSY | inactive |
| YETSVH | inactive |
| YETYSCEFFVYRLFCLNRSH | inactive |
| YEWSYCFNYLCHHYDTNWQR | 2.96 ± 0.056 |
| YFFTHDFHVVLNFANCIWYL | 2.99 ± 0.069 |
| YFFVHEKCQVGGRGGKLAKK | inactive |
| YFFWDLEILMHPFFQTVRNK | inactive |
| YFISWSFHGFVTSPGFWSGC | 1.41 ± 0.15 |
| YFLGWRYQCDIVIFWYQLRV | inactive |
